The sequences below were run on Escherichia coli TOP10 (assay: shrunken log2 fold change of peptide-encoding DNA abundance (4.5 h post-induction vs induction); higher = less antimicrobial activity (less host growth inhibition)). Conditions: time post-induction: 4.5 h; library: site-saturation at positions 5, 18, 19, 20.
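Note: peptides expressed intracellularly from a pBAD plasmid library in pooled LB shake-flask culture, induced with 0.3% L-arabinose, DNA abundance read by NGS, three biological replicates, DESeq2 with apeglm shrinkage.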

Sequence | shrunken log2 fold change
RRIRDRPPRLPRPRPRPPQTPRP | 0.115
RRIRQRPPRLPRPRPRPMFRPRP | -0.0146
RRIRKRPPRLPRPRPRPQEDPRP | 0.0977
RRIRLRPPRLPRPRPRPNHQPRP | -0.19
RRIRERPPRLPRPRPRPLHQPRP | -0.0505
RRIRNRPPRLPRPRPRPYKDPRP | 0.0141
RRIRTRPPRLPRPRPRPQQMPRP | -0.0941
RRIRQRPPRLPRPRPRPGPWPRP | 0.479
RRIRLRPPRLPRPRPRPDLSPRP | -0.112
RRIRRRPPRLPRPRPRPASTPRP | -0.0241
RRIRIRPPRLPRPRPRPDIFPRP | -0.828
RRIRWRPPRLPRPRPRPKGYPRP | 0.0648
RRIRSRPPRLPRPRPRPWGKPRP | -0.109
RRIRSRPPRLPRPRPRPKKKPRP | 0.195
RRIRGRPPRLPRPRPRPVPYPRP | 0.11
RRIRSRPPRLPRPRPRPDVYPRP | -0.0361
RRIRERPPRLPRPRPRPARIPRP | -0.246
RRIRVRPPRLPRPRPRPVKKPRP | 0.02
RRIRTRPPRLPRPRPRPYLIPRP | -0.183
RRIRIRPPRLPRPRPRPINRPRP | -0.312
RRIRLRPPRLPRPRPRPAPWPRP | 0.354
RRIRWRPPRLPRPRPRPCRAPRP | 0.217

Sequence | shrunken log2 fold change
RRIRFRPPRLPRPRPRPCFSPRP | -0.759
RRIRARPPRLPRPRPRPISIPRP | -0.439
RRIRARPPRLPRPRPRPVRPPRP | 0.602
RRIRLRPPRLPRPRPRPMNDPRP | -0.219
RRIRHRPPRLPRPRPRPMAIPRP | 0.0143
RRIRQRPPRLPRPRPRPQPAPRP | 0.218
RRIRQRPPRLPRPRPRPDNLPRP | -0.348
RRIRWRPPRLPRPRPRPQFNPRP | -0.498
RRIRSRPPRLPRPRPRPQSHPRP | -0.216
RRIRYRPPRLPRPRPRPRGDPRP | 0.316
RRIRDRPPRLPRPRPRPFQYPRP | 0.0242
RRIRIRPPRLPRPRPRPEHYPRP | -0.295
RRIRCRPPRLPRPRPRPHSHPRP | -0.307
RRIRRRPPRLPRPRPRPTHNPRP | 0.695
RRIRMRPPRLPRPRPRPKHFPRP | 0.176
RRIRVRPPRLPRPRPRPIWMPRP | -0.0796
RRIRKRPPRLPRPRPRPKETPRP | 0.35
RRIRSRPPRLPRPRPRPRIYPRP | -0.517
RRIRTRPPRLPRPRPRPHPMPRP | -0.167
RRIRMRPPRLPRPRPRPHKRPRP | 0.126
RRIRRRPPRLPRPRPRPTGNPRP | 0.0381
RRIRQRPPRLPRPRPRPVMVPRP | 0.11

Sequence | shrunken log2 fold change
RRIRPRPPRLPRPRPRPGPEPRP | 0.213
RRIRSRPPRLPRPRPRPVNRPRP | -0.107
RRIRFRPPRLPRPRPRPDSNPRP | -0.758
RRIRTRPPRLPRPRPRPINKPRP | -0.322
RRIRCRPPRLPRPRPRPQHWPRP | 0.102
RRIRDRPPRLPRPRPRPSPIPRP | 0.0798
RRIRNRPPRLPRPRPRPTSDPRP | -0.148
RRIRSRPPRLPRPRPRPYFEPRP | -0.359
RRIRGRPPRLPRPRPRPQTEPRP | 0.149
RRIRTRPPRLPRPRPRPLIGPRP | -0.413
RRIRCRPPRLPRPRPRPEFYPRP | -0.356
RRIRYRPPRLPRPRPRPSIKPRP | -0.952
RRIRYRPPRLPRPRPRPSEYPRP | -0.431
RRIRGRPPRLPRPRPRPCDMPRP | 0.22
RRIRSRPPRLPRPRPRPDREPRP | 0.154
RRIRTRPPRLPRPRPRPDGAPRP | 0.132
RRIRQRPPRLPRPRPRPHTCPRP | -0.325
RRIRDRPPRLPRPRPRPIFLPRP | -0.205
RRIRDRPPRLPRPRPRPMIYPRP | -0.0383
RRIRYRPPRLPRPRPRPVGCPRP | -0.284
RRIRARPPRLPRPRPRPCSGPRP | 0.0771
RRIRVRPPRLPRPRPRPYWRPRP | -0.323

Sequence | shrunken log2 fold change
RRIRPRPPRLPRPRPRPYSMPRP | -1.43
RRIRKRPPRLPRPRPRPMNWPRP | 0.134
RRIRIRPPRLPRPRPRPFGLPRP | -0.129
RRIRMRPPRLPRPRPRPFIRPRP | -0.47
RRIRQRPPRLPRPRPRPTKRPRP | 0.254
RRIRERPPRLPRPRPRPCRDPRP | 0.0284
RRIRMRPPRLPRPRPRPQRRPRP | 0.799
RRIRIRPPRLPRPRPRPIWWPRP | 0.0713
RRIRGRPPRLPRPRPRPHYKPRP | -0.0643
RRIRRRPPRLPRPRPRPQWSPRP | -0.00927
RRIRQRPPRLPRPRPRPNVKPRP | 0.0117
RRIRVRPPRLPRPRPRPNSQPRP | -0.131
RRIRIRPPRLPRPRPRPEWEPRP | 0.068
RRIRQRPPRLPRPRPRPDMWPRP | 0.0275
RRIRSRPPRLPRPRPRPKPHPRP | 0.213
RRIRPRPPRLPRPRPRPNNSPRP | -0.488
RRIRIRPPRLPRPRPRPAVDPRP | -0.0902
RRIRQRPPRLPRPRPRPWITPRP | -0.0754
RRIRPRPPRLPRPRPRPTHKPRP | 0.283
RRIRRRPPRLPRPRPRPPTRPRP | 0.688
RRIRIRPPRLPRPRPRPGWFPRP | -0.141
RRIRPRPPRLPRPRPRPDNGPRP | -0.332

Sequence | shrunken log2 fold change
RRIRERPPRLPRPRPRPEWTPRP | 0.0896
RRIRGRPPRLPRPRPRPEQPPRP | 1.68
RRIRHRPPRLPRPRPRPCLRPRP | 0.0119
RRIRLRPPRLPRPRPRPRKQPRP | 0.0587
RRIRVRPPRLPRPRPRPEMLPRP | 0.0987
RRIRSRPPRLPRPRPRPCTAPRP | -0.231
RRIRMRPPRLPRPRPRPMNAPRP | -0.0277
RRIRRRPPRLPRPRPRPYNCPRP | 0.00861
RRIRRRPPRLPRPRPRPAICPRP | 0.134
RRIRLRPPRLPRPRPRPFGYPRP | -0.291
RRIRCRPPRLPRPRPRPFHGPRP | -0.036
RRIRNRPPRLPRPRPRPDAGPRP | 0.391
RRIRARPPRLPRPRPRPQQIPRP | 0.218
RRIRLRPPRLPRPRPRPIEPPRP | 0.144
RRIRPRPPRLPRPRPRPCRWPRP | 0.0987
RRIRLRPPRLPRPRPRPLETPRP | -0.0757
RRIRQRPPRLPRPRPRPFMGPRP | -0.0627
RRIRTRPPRLPRPRPRPWRGPRP | 0.123
RRIRWRPPRLPRPRPRPQLLPRP | 0.115
RRIRMRPPRLPRPRPRPEWEPRP | -0.00306
RRIRGRPPRLPRPRPRPEANPRP | 0.632
